How the values were obtained:
[1] = biological target: recombinant SARS-CoV-2 S-6P spike protein (SARS-CoV-2 Wuhan, UniProt P0DTC2, stabilised); test: ELISA
[2] = biological target: recombinant prefusion stabilized SARS-CoV-2 spike protein (S-2P) (SARS-CoV-2 Wuhan, UniProt P0DTC2, stabilised); test: HDX-MS
[3] = biological target: SARS-CoV-2 Wuhan spike protein on HEK293T cells (SARS-CoV-2 Wuhan, UniProt P0DTC2); test: flow cytometry on cells

Measured: binding result

B1: VHH R3DC23 (VHH)
VHH: QVQLQESGGGLVQAGDSLTLSCAVSGRIFSTYTMGWFRQAPGKEREFVAAVRWGAGTIYYADSMKGRFTISRDSAKNTVDLQMNSTKPEDTAVYYCGAAYVSKANYGSLWYQDSRRYDYWGQGTQVTVSS
binds: all assays above

From article doi:10.1101/2023.03.10.531533 (bioRxiv, 2023)
